Consider one substance from IntAct's records for PubMed 29691401.

In this experiment the target is lmbl3_human L3MBTL3 (UniProt Q96JM7).
Chain of lmbl3_human L3MBTL3 (Q96JM7 whole entry): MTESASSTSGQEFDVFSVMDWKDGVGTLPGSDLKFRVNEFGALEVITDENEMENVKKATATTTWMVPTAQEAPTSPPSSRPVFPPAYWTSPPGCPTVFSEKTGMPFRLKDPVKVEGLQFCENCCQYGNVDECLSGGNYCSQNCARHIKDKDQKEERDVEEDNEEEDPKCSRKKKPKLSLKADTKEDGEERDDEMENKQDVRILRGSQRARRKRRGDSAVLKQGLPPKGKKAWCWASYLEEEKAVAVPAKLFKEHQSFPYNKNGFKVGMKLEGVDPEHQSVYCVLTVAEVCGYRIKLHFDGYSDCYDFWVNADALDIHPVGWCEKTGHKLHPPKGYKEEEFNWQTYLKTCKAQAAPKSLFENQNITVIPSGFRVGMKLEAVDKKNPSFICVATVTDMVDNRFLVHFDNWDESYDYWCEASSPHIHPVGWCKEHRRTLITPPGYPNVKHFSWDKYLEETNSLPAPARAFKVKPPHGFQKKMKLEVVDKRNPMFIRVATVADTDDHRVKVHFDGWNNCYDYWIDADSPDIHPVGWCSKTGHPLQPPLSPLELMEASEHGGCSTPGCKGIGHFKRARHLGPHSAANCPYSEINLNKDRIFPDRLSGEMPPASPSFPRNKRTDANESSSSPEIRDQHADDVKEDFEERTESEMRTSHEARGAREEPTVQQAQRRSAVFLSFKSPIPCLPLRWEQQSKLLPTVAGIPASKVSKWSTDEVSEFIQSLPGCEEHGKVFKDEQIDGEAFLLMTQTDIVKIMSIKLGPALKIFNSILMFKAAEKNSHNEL

Chain of Transcription factor E2F1 (Homo sapiens), Q01094 K185R (Q01094 whole entry K185R): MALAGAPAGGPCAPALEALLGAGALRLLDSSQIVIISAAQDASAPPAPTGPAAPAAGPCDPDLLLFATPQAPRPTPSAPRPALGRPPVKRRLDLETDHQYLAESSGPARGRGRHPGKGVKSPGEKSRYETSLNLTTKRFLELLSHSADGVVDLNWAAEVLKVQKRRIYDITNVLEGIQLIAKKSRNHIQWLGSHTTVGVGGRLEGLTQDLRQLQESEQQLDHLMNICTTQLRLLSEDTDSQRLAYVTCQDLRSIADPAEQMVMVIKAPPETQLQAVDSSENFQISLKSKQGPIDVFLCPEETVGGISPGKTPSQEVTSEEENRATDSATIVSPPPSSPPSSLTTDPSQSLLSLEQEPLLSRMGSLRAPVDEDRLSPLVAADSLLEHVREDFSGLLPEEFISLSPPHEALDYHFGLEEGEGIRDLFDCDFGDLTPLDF

“Transcription factor E2F1 (Homo sapiens), Q01094 K185R”: the “effect of a mutation on the interaction” value is “disrupting interaction strength”.
